Assays:
NRG1 = NRG1 (UniProt Q02297); assay: cell-based or functional assay
[1] = target: EN2320 (HER3/Fc homodimer) (human, UniProt P21860 20-640); assay: SPR (Biacore 8K), trap on anti-human Fc chip
HF310 (HER3-500) = target: T1, HF310 (HER3-500) (human, UniProt P21860 20-519); assay: 125I-HRG cross-linking normalised by anti-HER3 Western blot densitometry
T1 construct: also called HER3-501; HF310T
T1 sequence (P21860 20-519 limits assumed): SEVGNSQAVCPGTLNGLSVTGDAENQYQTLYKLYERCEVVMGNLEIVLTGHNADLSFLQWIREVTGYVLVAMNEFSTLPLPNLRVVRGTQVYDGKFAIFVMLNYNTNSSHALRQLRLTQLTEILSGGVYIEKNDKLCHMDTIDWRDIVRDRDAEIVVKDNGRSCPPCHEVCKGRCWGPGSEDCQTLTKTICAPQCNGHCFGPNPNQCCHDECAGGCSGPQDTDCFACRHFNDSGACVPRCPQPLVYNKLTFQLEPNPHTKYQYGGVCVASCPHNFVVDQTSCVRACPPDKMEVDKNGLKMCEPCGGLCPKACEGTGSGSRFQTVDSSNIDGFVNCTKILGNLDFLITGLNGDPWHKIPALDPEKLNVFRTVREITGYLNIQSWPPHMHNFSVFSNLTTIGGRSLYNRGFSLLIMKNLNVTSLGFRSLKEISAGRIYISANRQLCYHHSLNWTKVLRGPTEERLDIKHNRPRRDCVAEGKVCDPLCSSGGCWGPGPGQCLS
Experimental: Binding was performed by mixing increasing amounts of supernatants (from 2.5 μl-20 μl of supernatant) with 5 nM of ¹²⁵I-HRG in a total volume of 20 μl of Hepes buffer (pH 7.5) at room temperature for 2 hours. 1 mM of the BS₃ crosslinker was added at the end of the binding assay to cross-link the bound molecules. Binding reactions were separated on an SDS-PAGE gel. The protein gel was dried and exposed to a film for 2 and 6 hours.
A parallel Western blot with an anti-HER3 antibody (R&D Systems), followed by densitometry was used to estimate relative HER3-derivative levels and then to normalize ligand binding to each protein based on equal number of binding sites, which are the equivalent to anti-HER3 binding sites.

Chain of EN2320 (HER3/Fc homodimer) (P21860 20-640 Y265A): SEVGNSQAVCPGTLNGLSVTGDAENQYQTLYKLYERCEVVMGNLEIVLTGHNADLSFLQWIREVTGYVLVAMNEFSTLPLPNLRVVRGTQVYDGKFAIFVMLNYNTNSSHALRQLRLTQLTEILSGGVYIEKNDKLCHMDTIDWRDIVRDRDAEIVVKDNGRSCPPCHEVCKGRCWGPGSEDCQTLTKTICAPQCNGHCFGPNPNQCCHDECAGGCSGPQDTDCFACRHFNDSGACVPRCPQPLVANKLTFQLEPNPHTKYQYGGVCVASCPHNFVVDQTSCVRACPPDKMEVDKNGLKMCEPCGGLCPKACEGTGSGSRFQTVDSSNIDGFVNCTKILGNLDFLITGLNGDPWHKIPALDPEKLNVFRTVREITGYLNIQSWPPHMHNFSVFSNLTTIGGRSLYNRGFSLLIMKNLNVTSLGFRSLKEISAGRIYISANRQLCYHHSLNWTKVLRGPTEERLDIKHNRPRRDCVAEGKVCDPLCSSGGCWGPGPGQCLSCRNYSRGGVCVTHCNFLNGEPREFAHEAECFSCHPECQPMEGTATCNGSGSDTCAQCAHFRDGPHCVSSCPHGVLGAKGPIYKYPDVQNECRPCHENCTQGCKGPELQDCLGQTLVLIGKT

Molecule	Approximate EC50, inhibition of NRG1-β-induced HER3 phosphorylation (MCF7 cells, phosphotyrosine ELISA) (NRG1)	Kd [1]	koff [1]	kon [1]	binding result (HF310 (HER3-500))
HER3^Y246A/Fc (from UniProt P21860 20-640) (Fc fusion)	1.5 nM	–	–	–	–
NRG1 (ligand, UniProt Q02297-6 177-241, looked up, also called NRG1_R&D; NRG1-R&D) SHLVKCAEKEKTFCVNGGECFMVKDLSNPSRYLCKCPNEFTGDRCQNYVMASFYKHLGIEFMEAE	–	0.389 nM	0.379 s⁻¹	9.76e+08 M⁻¹ s⁻¹	–

Second part, the molecule after the results:

Approximate EC50, inhibition of NRG1-β-induced HER3 phosphorylation (MCF7 cells, phosphotyrosine ELISA) (NRG1)	Kd [1]	koff [1]	kon [1]	binding result (HF310 (HER3-500))	Molecule
–	43.3 nM	0.0247 s⁻¹	571000 M⁻¹ s⁻¹	–	NRG2-beta (ligand, UniProt O14511-3 341-405, looked up) HARKCNETAKSYCVNGGVCYYIEGINQLSCKCPNGFFGQRCLEKLPLRLYMPDPKQKHLGFELKE
–	–	–	–	binds	heregulin (HRG) (ligand, UniProt Q02297-6 177-241, looked up, also: 125I label, site not given here, also called HRG1β1) SHLVKCAEKEKTFCVNGGECFMVKDLSNPSRYLCKCPNEFTGDRCQNYVMASFYKHLGIEFMEAE

— patent US20250388650A1 (ENOSI THERAPEUTICS, published 2025)
